Source: patent publication US20220048967A1 (published 2022)
Substitutions are numbered along the chain they refer to. Numbered stars: 1 amine (or outer) side, 2 acyl side, 3 side chain; on linkers, the order of the positions; unused ones are H or OH. Square brackets hold non-standard residues; d marks the D form. Side chains are listed from the residue outwards. Ends that are not written are not given here. * marks the point of attachment. C20 diacid = O=C(O)CCCCCCCCCCCCCCCCCCC(=O)*; C18 diacid = O=C(O)CCCCCCCCCCCCCCCCC(=O)*; γGlu = O=C(O)[C@H](CCC(=O)[*:2])N[*:1]; AEEA = NCCOCCOCC(=O)O; Aib = CC(C)(N)C(=O)O

T1: human gastric inhibitory peptide receptor (GIPR) (human, UniProt P48546 22-466)
T1 sequence (looked up): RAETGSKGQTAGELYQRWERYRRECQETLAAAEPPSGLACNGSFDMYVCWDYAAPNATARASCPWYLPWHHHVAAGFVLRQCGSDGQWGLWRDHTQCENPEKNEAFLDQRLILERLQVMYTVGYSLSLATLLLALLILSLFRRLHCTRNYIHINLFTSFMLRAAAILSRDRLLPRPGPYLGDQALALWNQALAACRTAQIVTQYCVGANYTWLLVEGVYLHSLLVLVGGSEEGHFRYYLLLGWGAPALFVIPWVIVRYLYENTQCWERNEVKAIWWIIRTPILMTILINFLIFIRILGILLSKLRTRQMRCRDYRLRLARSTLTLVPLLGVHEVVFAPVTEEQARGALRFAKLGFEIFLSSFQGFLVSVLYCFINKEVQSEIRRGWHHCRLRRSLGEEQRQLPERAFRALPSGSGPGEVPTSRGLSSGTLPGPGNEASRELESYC

B1: Example 271 (peptide)
peptide: Y[Aib]EGTFTSDYSILLDKK([AEEA-AEEA-γGlu-C18 diacid])AQ[Aib]EFIEYLIEGG-NH2
modifications: N-terminus assumed
SMILES: CC[C@H](C)[C@H](NC(=O)[C@H](CC(C)C)NC(=O)[C@H](Cc1ccc(O)cc1)NC(=O)[C@H](CCC(=O)O)NC(=O)[C@@H](NC(=O)[C@H](Cc1ccccc1)NC(=O)[C@H](CCC(=O)O)NC(=O)C(C)(C)NC(=O)[C@H](CCC(N)=O)NC(=O)[C@H](C)NC(=O)[C@H](CCCCNC(=O)COCCOCCNC(=O)COCCOCCNC(=O)CC[C@H](NC(=O)CCCCCCCCCCCCCCCCC(=O)O)C(=O)O)NC(=O)[C@H](CCCCN)NC(=O)[C@H](CC(=O)O)NC(=O)[C@H](CC(C)C)NC(=O)[C@H](CC(C)C)NC(=O)[C@@H](NC(=O)[C@H](CO)NC(=O)[C@H](Cc1ccc(O)cc1)NC(=O)[C@H](CC(=O)O)NC(=O)[C@H](CO)NC(=O)[C@@H](NC(=O)[C@H](Cc1ccccc1)NC(=O)[C@@H](NC(=O)CNC(=O)[C@H](CCC(=O)O)NC(=O)C(C)(C)NC(=O)[C@@H](N)Cc1ccc(O)cc1)[C@@H](C)O)[C@@H](C)O)[C@@H](C)CC)[C@@H](C)CC)C(=O)N[C@@H](CCC(=O)O)C(=O)NCC(=O)NCC(N)=O
B2: Example 272 (peptide)
peptide: Y[Aib]EGTFTSDYSILLDKK([AEEA-AEEA-γGlu-C18 diacid])AQ[Aib]AFIEYLIAGGPSSG-NH2
modifications: N-terminus assumed
SMILES: CC[C@H](C)[C@H](NC(=O)[C@H](CC(C)C)NC(=O)[C@H](Cc1ccc(O)cc1)NC(=O)[C@H](CCC(=O)O)NC(=O)[C@@H](NC(=O)[C@H](Cc1ccccc1)NC(=O)[C@H](C)NC(=O)C(C)(C)NC(=O)[C@H](CCC(N)=O)NC(=O)[C@H](C)NC(=O)[C@H](CCCCNC(=O)COCCOCCNC(=O)COCCOCCNC(=O)CC[C@H](NC(=O)CCCCCCCCCCCCCCCCC(=O)O)C(=O)O)NC(=O)[C@H](CCCCN)NC(=O)[C@H](CC(=O)O)NC(=O)[C@H](CC(C)C)NC(=O)[C@H](CC(C)C)NC(=O)[C@@H](NC(=O)[C@H](CO)NC(=O)[C@H](Cc1ccc(O)cc1)NC(=O)[C@H](CC(=O)O)NC(=O)[C@H](CO)NC(=O)[C@@H](NC(=O)[C@H](Cc1ccccc1)NC(=O)[C@@H](NC(=O)CNC(=O)[C@H](CCC(=O)O)NC(=O)C(C)(C)NC(=O)[C@@H](N)Cc1ccc(O)cc1)[C@@H](C)O)[C@@H](C)O)[C@@H](C)CC)[C@@H](C)CC)C(=O)N[C@@H](C)C(=O)NCC(=O)NCC(=O)N1CCC[C@H]1C(=O)N[C@@H](CO)C(=O)N[C@@H](CO)C(=O)NCC(N)=O
B3: Example 273 (peptide)
peptide: Y[Aib]EGTFTSDYSILLDKK([AEEA-AEEA-γGlu-C18 diacid])AQ[Aib]AFIEYLIAGG-NH2
modifications: N-terminus assumed
SMILES: CC[C@H](C)[C@H](NC(=O)[C@H](CC(C)C)NC(=O)[C@H](Cc1ccc(O)cc1)NC(=O)[C@H](CCC(=O)O)NC(=O)[C@@H](NC(=O)[C@H](Cc1ccccc1)NC(=O)[C@H](C)NC(=O)C(C)(C)NC(=O)[C@H](CCC(N)=O)NC(=O)[C@H](C)NC(=O)[C@H](CCCCNC(=O)COCCOCCNC(=O)COCCOCCNC(=O)CC[C@H](NC(=O)CCCCCCCCCCCCCCCCC(=O)O)C(=O)O)NC(=O)[C@H](CCCCN)NC(=O)[C@H](CC(=O)O)NC(=O)[C@H](CC(C)C)NC(=O)[C@H](CC(C)C)NC(=O)[C@@H](NC(=O)[C@H](CO)NC(=O)[C@H](Cc1ccc(O)cc1)NC(=O)[C@H](CC(=O)O)NC(=O)[C@H](CO)NC(=O)[C@@H](NC(=O)[C@H](Cc1ccccc1)NC(=O)[C@@H](NC(=O)CNC(=O)[C@H](CCC(=O)O)NC(=O)C(C)(C)NC(=O)[C@@H](N)Cc1ccc(O)cc1)[C@@H](C)O)[C@@H](C)O)[C@@H](C)CC)[C@@H](C)CC)C(=O)N[C@@H](C)C(=O)NCC(=O)NCC(N)=O
B4: Example 274 (peptide)
peptide: Y[Aib]EGTFTSDYSILLDKK([AEEA-AEEA-γGlu-C18 diacid])AQPAFIEYLIEGGPSSG-NH2
modifications: N-terminus assumed
SMILES: CC[C@H](C)[C@H](NC(=O)[C@H](CC(C)C)NC(=O)[C@H](Cc1ccc(O)cc1)NC(=O)[C@H](CCC(=O)O)NC(=O)[C@@H](NC(=O)[C@H](Cc1ccccc1)NC(=O)[C@H](C)NC(=O)[C@@H]1CCCN1C(=O)[C@H](CCC(N)=O)NC(=O)[C@H](C)NC(=O)[C@H](CCCCNC(=O)COCCOCCNC(=O)COCCOCCNC(=O)CC[C@H](NC(=O)CCCCCCCCCCCCCCCCC(=O)O)C(=O)O)NC(=O)[C@H](CCCCN)NC(=O)[C@H](CC(=O)O)NC(=O)[C@H](CC(C)C)NC(=O)[C@H](CC(C)C)NC(=O)[C@@H](NC(=O)[C@H](CO)NC(=O)[C@H](Cc1ccc(O)cc1)NC(=O)[C@H](CC(=O)O)NC(=O)[C@H](CO)NC(=O)[C@@H](NC(=O)[C@H](Cc1ccccc1)NC(=O)[C@@H](NC(=O)CNC(=O)[C@H](CCC(=O)O)NC(=O)C(C)(C)NC(=O)[C@@H](N)Cc1ccc(O)cc1)[C@@H](C)O)[C@@H](C)O)[C@@H](C)CC)[C@@H](C)CC)C(=O)N[C@@H](CCC(=O)O)C(=O)NCC(=O)NCC(=O)N1CCC[C@H]1C(=O)N[C@@H](CO)C(=O)N[C@@H](CO)C(=O)NCC(N)=O
B5: Example 275 (peptide)
peptide: Y[Aib]EGTFTSDYSILLDKK([AEEA-AEEA-γGlu-C18 diacid])AQPAFIEYLIEGG-NH2
modifications: N-terminus assumed
SMILES: CC[C@H](C)[C@H](NC(=O)[C@H](CC(C)C)NC(=O)[C@H](Cc1ccc(O)cc1)NC(=O)[C@H](CCC(=O)O)NC(=O)[C@@H](NC(=O)[C@H](Cc1ccccc1)NC(=O)[C@H](C)NC(=O)[C@@H]1CCCN1C(=O)[C@H](CCC(N)=O)NC(=O)[C@H](C)NC(=O)[C@H](CCCCNC(=O)COCCOCCNC(=O)COCCOCCNC(=O)CC[C@H](NC(=O)CCCCCCCCCCCCCCCCC(=O)O)C(=O)O)NC(=O)[C@H](CCCCN)NC(=O)[C@H](CC(=O)O)NC(=O)[C@H](CC(C)C)NC(=O)[C@H](CC(C)C)NC(=O)[C@@H](NC(=O)[C@H](CO)NC(=O)[C@H](Cc1ccc(O)cc1)NC(=O)[C@H](CC(=O)O)NC(=O)[C@H](CO)NC(=O)[C@@H](NC(=O)[C@H](Cc1ccccc1)NC(=O)[C@@H](NC(=O)CNC(=O)[C@H](CCC(=O)O)NC(=O)C(C)(C)NC(=O)[C@@H](N)Cc1ccc(O)cc1)[C@@H](C)O)[C@@H](C)O)[C@@H](C)CC)[C@@H](C)CC)C(=O)N[C@@H](CCC(=O)O)C(=O)NCC(=O)NCC(N)=O
B6: Example 288 (peptide)
peptide: Y[Aib]EGTFTSDYSILLDKK([AEEA-AEEA-γGlu-C20 diacid])AQ[Aib]AFIEYLIAGGPSSGAPPPS-NH2
modifications: N-terminus assumed
SMILES: CC[C@H](C)[C@H](NC(=O)[C@H](CC(C)C)NC(=O)[C@H](Cc1ccc(O)cc1)NC(=O)[C@H](CCC(=O)O)NC(=O)[C@@H](NC(=O)[C@H](Cc1ccccc1)NC(=O)[C@H](C)NC(=O)C(C)(C)NC(=O)[C@H](CCC(N)=O)NC(=O)[C@H](C)NC(=O)[C@H](CCCCNC(=O)COCCOCCNC(=O)COCCOCCNC(=O)CC[C@H](NC(=O)CCCCCCCCCCCCCCCCCCC(=O)O)C(=O)O)NC(=O)[C@H](CCCCN)NC(=O)[C@H](CC(=O)O)NC(=O)[C@H](CC(C)C)NC(=O)[C@H](CC(C)C)NC(=O)[C@@H](NC(=O)[C@H](CO)NC(=O)[C@H](Cc1ccc(O)cc1)NC(=O)[C@H](CC(=O)O)NC(=O)[C@H](CO)NC(=O)[C@@H](NC(=O)[C@H](Cc1ccccc1)NC(=O)[C@@H](NC(=O)CNC(=O)[C@H](CCC(=O)O)NC(=O)C(C)(C)NC(=O)[C@@H](N)Cc1ccc(O)cc1)[C@@H](C)O)[C@@H](C)O)[C@@H](C)CC)[C@@H](C)CC)C(=O)N[C@@H](C)C(=O)NCC(=O)NCC(=O)N1CCC[C@H]1C(=O)N[C@@H](CO)C(=O)N[C@@H](CO)C(=O)NCC(=O)N[C@@H](C)C(=O)N1CCC[C@H]1C(=O)N1CCC[C@H]1C(=O)N1CCC[C@H]1C(=O)N[C@@H](CO)C(N)=O
B7: Example 289 (peptide)
peptide: YXEGTFTSDYSIXLDKKAQXEFIEYLIAGGPSSGAPPPS
modifications: Aib2, αMeL13, (2-[2-(2-Amino-ethoxy)-ethoxy]-acetyl)2-(γ-Glu)-CO-(CH2)18-CO2H on K17, Aib20, C-terminal NH2
B8: Example 290 (peptide)
peptide: B7 peptide with Y1X
modifications: D-Tyr1, Aib2, αMeL13, (2-[2-(2-Amino-ethoxy)-ethoxy]-acetyl)2-(γ-Glu)-CO-(CH2)18-CO2H on K17, Aib20, C-terminal NH2
B9: Example 291 (peptide)
peptide: B7 peptide with Y1X, K16X, E21A, E24X
modifications: D-Tyr1, Aib2, αMeL13, Orn16, (2-[2-(2-Amino-ethoxy)-ethoxy]-acetyl)2-(γ-Glu)-CO-(CH2)18-CO2H on K17, Aib20, D-Glu24, C-terminal NH2
B10: Example 292 (peptide)
peptide: B7 peptide with Y1X, Y25X
modifications: D-Tyr1, Aib2, αMeL13, (2-[2-(2-Amino-ethoxy)-ethoxy]-acetyl)2-(γ-Glu)-CO-(CH2)18-CO2H on K17, Aib20, αMeY25, C-terminal NH2

Target: human GLP-1 receptor (GLP-1R) (human, UniProt P43220 24-463)
Assay: cell-based or functional assay

Binder | hGLP1R cAMP EC50 ratio | hGLP1R cAMP Rel EC50 [nM]
B1 | 1.35 | 0.0352
B2 | 1.19 | 0.0435
B3 | 1.85 | 0.0352
B4 | 0.00353 | 14.5
B5 | 0.00357 | 14
B6 | 0.393 | 0.172
B7 | 1.33 | 0.0544
B8 | 0.279 | 0.179
B9 | 0.188 | 0.15
B10 | 0.143 | 0.183

Target: T1, human gastric inhibitory peptide …
Assay: cell-based or functional assay

Binder | hGIPR cAMP EC50 ratio | hGIPR cAMP Rel EC50 [nM]
B1 | 0.614 | 0.334
B2 | 2.97 | 0.0464
B3 | 2.15 | 0.079
B4 | < 0.00741 | > 30
B5 | < 0.00741 | > 30
B6 | 1.2 | 0.0732
B7 | 4.13 | 0.0228
B8 | 1.09 | 0.0629
B9 | 0.746 | 0.118
B10 | 1.1 | 0.0682
